# In patent US20130143948A1, “MST1 AS A PROGNOSTIC BIOMARKER AND THERAPEUTIC TARGET IN HUMAN CANCER” (CEDARS-SINAI MEDICAL CENTER, priority 2010, published 2013):
# B1: MST1: serine-threonine kinase MST1 (mammalian sterile STE20-like kinase 1), enforced Dox-inducible HA-tagged expression in tumor cells (protein, UniProt Q13043 1-487, looked up)
# Serine/threonine-protein …: METVQLRNPPRRQLKKLDEDSLTKQPEEVFDVLEKLGEGSYGSVYKAIHKETGQIVAIKQVPVESDLQEIIKEISIMQQCDSPHVVKYYGSYFKNTDLWIVMEYCGAGSVSDIIRLRNKTLTEDEIATILQSTLKGLEYLHFMRKIHRDIKAGNILLNTEGHAKLADFGVAGQLTDTMAKRNTVIGTPFWMAPEVIQEIGYNCVADIWSLGITAIEMAEGKPPYADIHPMRAIFMIPTNPPPTFRKPELWSDNFTDFVKQCLVKSPEQRATATQLLQHPFVRSAKGVSILRDLINEAMDVKLKRQESQQREVDQDDEENSEEDEMDSGTMVRAVGDEMGTVRVASTMTDGANTMIEHDDTLPSQLGTMVINAEDEEEEGTMKRRDETMQPAKPSFLEYFEQKEKENQINSFGKSVPGPLKNSSDWKIPQDGDYEFLKSWTVEDLQKRLLALDPMMEQEIEEIRQKYQSKRQPILDAIEAKKRRQQNF
# modifications: HA tag
# notes: serine-threonine kinase MST1 (mammalian sterile STE20-like kinase 1), enforced Dox-inducible HA-tagged expression in tumor cells
# Columns and labels:
# LNCaP/Vector cells = assay: BrdU incorporation cell proliferation assay, LNCaP/Vector; assay type: cell-based; details: Dox 4 μg/ml, 24 hr
# Method: For in vitro kinase assay, the recombinant, pre-activated MST1 protein kinase was incubated with purified GST-AR DBD/HR fusion protein and 10 μCi ^32P-γ-ATP or 100 μM unlabeled-ATP. The reaction mixture was resolved on SDS-PAGE and autoradiographed. Cell-Death ELISA and BrdU incorporation assays were performed to assess cell death and cell proliferation, respectively, according to the manufacturer's instructions (Roche Molecular Diagnostics).
# [1] = system: C4-2/HA-MST1 tumor xenografts; assay: Subcutaneous prostate cancer xenograft in athymic nude mice; assay type: in vivo
# Method: C4-2/Vector or C4-2/HA-MST1 cells mixed with Matrigel (1-to-1 ratio) were inoculated subcutaneously in athymic nude mice (CD-1 nu/nu; Charles River Laboratories, Wilmington, Mass.). 1×10^6 cells/100 μl were used per injection per site (right and left flanks). Mice were treated with Dox (0.5 mg/ml) in drinking water to induce MST1 expression for 12 weeks. Institutional Animal Care and Use Committee (IACUC) policies and guidelines were strictly applied. Tumor volumes were assessed by caliper according to procedures described previously (20). Mice were sacrificed and evaluated for tumor growth anatomically and tumor tissues extracted from mice were fixed in 10% formaldehyde for the construction of histological sections or “snap” frozen at −80° C. The expression of MST1 was verified in histological sections by immunohistochemistry using anti-HA antibody.
# [2] = C4-2/HA-MST1 vs C4-2/Vector, Dox in drinking water, 12 weeks
Molecule,effect on cell growth (LNCaP/Vector cells),"mice that developed tumors ([1]; 12 weeks after subcutaneous inoculation, 10 mice per group)","suppression of tumor growth [1, 2]","suppression of tumorigenic rates [1, 2]"
"C[C@H]1c2cccc(O)c2C(=O)C2=C(O)[C@]3(O)C(=O)C(C(N)=O)=C(O)[C@@H](N(C)C)[C@@H]3[C@@H](O)[C@@H]21 [Dox, doxycycline]",no effect,,,
B1,,2 out of 10,35 fold,4 fold
